Target: 10th and 11th cadherin repeat domains of the Plutella xylostella cadherin (PxCR10–11), GST-tagged (Plutella xylostella)
Assay: BLI; Octet Red 96; GST-tagged PxCR10–11 loaded onto anti-GST biosensors; toxin 38.5 to 576.9 nM in solution; 400 s association, 400 s dissociation; 10 mM GSH, 50 mM Tris, pH 8.0; 1:1 binding model

| Substance | Kd [nM] |
| --- | --- |
| Cry2Ab–AVMd (Cry2Ab30 conjugated with 4'',5-O-succinyl avermectin) | 71.9 |
| Cry2Ab–AVM bioconjugate (Cry2Ab30 conjugated with 4''-O-succinyl avermectin) | 3.44 |

Reference: publication PMC6783867
